Experimental data reported in patent publication US7232659.
One block for each substance: values may come before it.

Legend:
[1] = molecular target: FPR-GFP fusion protein (human; Aequorea victoria) (UniProt P21462); assay: flow cytometry, LRG assembly of 30 nM FPR-GFP on αβγ DCNi beads, ligand varied (FIG. 13B); exponent printed as 10^6, read as 10^-6
[2] = molecular target: β2-adrenergic receptor-green fluorescent protein fusion protein (β2AR-GFP) (human; Aequorea victoria) (UniProt P07550); assay: flow cytometry, soluble Gαsβ1γ2 competing with bead-borne Gαsβ1γ2 for isoproterenol-bound β2AR-GFP (FIG. 4E)
[3] = molecular target: hexahistidine-tagged G protein heterotrimer Gαsβ1γ2 (human) (UniProt P63092); assay: flow cytometry, Gαsβ1γ2 on Ni beads, 40 nM β2AR-GFP with 1 mM isoproterenol; background with 0.1 mM GTPγS about 10,000 β2AR-GFP/bead
[4] = molecular target: hexahistidine-tagged G protein heterotrimer Gαsβ1γ2 (human) (UniProt P63092); assay: flow cytometry, ARG assembly of 20 nM β2AR-GFP on Gαsβ1γ2 Ni beads, receptor occupied by salbutamol (FIG. 5B)
[5] = molecular target: hexahistidine-tagged G protein heterotrimer Gαsβ1γ2 (human) (UniProt P63092); assay: flow cytometry, ARG assembly of 20 nM β2AR-GFP on Gαsβ1γ2 Ni beads, receptor occupied by dobutamine (FIG. 5B)

hexahistidine-tagged G protein heterotrimer Gαsβ1γ2 (human), sequence (P63092 other isoform, or with tags, fused parts or gaps, chain 1 of 3): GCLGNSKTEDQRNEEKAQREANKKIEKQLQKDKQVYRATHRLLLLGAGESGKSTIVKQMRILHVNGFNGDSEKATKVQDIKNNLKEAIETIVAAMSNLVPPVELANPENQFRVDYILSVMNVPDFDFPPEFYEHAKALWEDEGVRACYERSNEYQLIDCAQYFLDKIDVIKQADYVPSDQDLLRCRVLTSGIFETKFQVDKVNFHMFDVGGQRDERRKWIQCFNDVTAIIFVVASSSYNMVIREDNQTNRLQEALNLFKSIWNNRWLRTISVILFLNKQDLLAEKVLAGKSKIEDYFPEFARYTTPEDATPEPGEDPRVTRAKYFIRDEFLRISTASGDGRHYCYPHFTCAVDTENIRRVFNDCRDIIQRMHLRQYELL
hexahistidine-tagged G protein heterotrimer Gαsβ1γ2 (human), sequence (P62873 2-340, chain 2 of 3, further chain): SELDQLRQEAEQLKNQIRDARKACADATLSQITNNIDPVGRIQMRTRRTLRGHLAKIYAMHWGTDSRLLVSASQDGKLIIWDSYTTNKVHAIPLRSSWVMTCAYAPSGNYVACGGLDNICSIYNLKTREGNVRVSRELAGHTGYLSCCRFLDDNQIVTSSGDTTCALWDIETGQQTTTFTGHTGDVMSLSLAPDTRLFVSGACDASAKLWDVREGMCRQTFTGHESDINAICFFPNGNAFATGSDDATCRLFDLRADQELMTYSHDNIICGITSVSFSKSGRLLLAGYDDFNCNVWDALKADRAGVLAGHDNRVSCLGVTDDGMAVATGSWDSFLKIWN
hexahistidine-tagged G protein heterotrimer Gαsβ1γ2 (human), sequence (P59768 other isoform, or with tags, fused parts or gaps, chain 3 of 3, further chain): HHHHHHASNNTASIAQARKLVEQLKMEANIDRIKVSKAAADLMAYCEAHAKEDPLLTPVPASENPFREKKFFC

EC50 [1]: 5300 nM
Substance: fML (peptide)

Kd [2]: 90 to 110 nM
Substance: hexahistidine-tagged G protein heterotrimer Gαsβ1γ2 (from UniProt P63092 2-380; P62873 2-340; P59768 2-68)

total fluorescence, β2AR-GFP/bead (β2AR-GFP/bead) [3]: 80000 | ARG/bead level against the full agonist isoproterenol [4]: 30 percent | ARG/bead level against the full agonist isoproterenol [5]: 10 percent
Substance: β2-adrenergic receptor-green fluorescent protein fusion protein (β2AR-GFP) (from UniProt P07550 1-413; P42212 1-238)
